Results reported in patent publication US20210380703A1.
Changes are numbered by the printed parent chain.

B1: 368_A09 (antibody, V domains shown)
VH: EVQLLESGGGLVQPGGSLRLSCAASGFTFDSYSMNWVRQAPGKGLEWVSGINYNGGYTSYADSVKGRFTISRDNSKNTLYLQMNSLRAEDTAVYYCARSANWHDTHLDYWGQGTLVTVSS
VL: DIQMTQSPSSLSASVGDRVTITCRASQSILSYVNWYQQKPGKAPKLLIYAVTSRASGVPSRFSGSGSGTDFTLTISSLQPEDFATYYCQQSYDSPLTFGGGTKVEIK
B2: 370_A04 (antibody, V domains shown)
VH: B1 VH with H106A
VL: B1 VL with L30I, S31T, V33L, V51A, S94N
B3: 369_H06 (antibody, V domains shown)
VH: B1 VH with D30S, S33G, S49A, G50N, T58K, H106A
VL: B1 VL with L30V, V51A, S94T
B4: 369_G06 (antibody, V domains shown)
VH: B1 VH with S33G, S49A, H106A
VL: B1 VL with L47V, V51A, D93E, S94N
B5: 369_G11 (antibody, V domains shown)
VH: B1 VH with D30S, S49A, G50N, G55S, T58K, S59G, H106A
VL: B1 VL with S31T, V33L, V51A, R54L, D93E
B6: 370_C01 (antibody, V domains shown)
VH: B1 VH with G55S, S59G, H106A
VL: B1 VL with S31T, V33L, L47V, V51A, R54L, S94T
B7: 369_F01 (antibody, V domains shown)
VH: B1 VH with D30S, S33G, T58K, H106A
VL: B1 VL with S31T, V51A, D93E, S94L
B8: 369_G04 (antibody, V domains shown)
VH: B1 VH with H106A
VL: B1 VL with S31T, V51T, A55H, D93E, S94T
B9: 369_F03 (antibody, V domains shown)
VH: B1 VH with D30S, S31D, S33G, G55S, H106A
VL: B1 VL with L30V, V51A, R54L
B10: 370_C08 (antibody, V domains shown)
VH: B1 VH with D30S, S33G, S49A, T58K, S59G, H106A
VL: B1 VL with L30S, S31N, V33L
B11: 369_C04 (antibody, V domains shown)
VH: B1 VH with D30S, G50N, S59G, H106A
VL: B1 VL with S31T, A50T, V51T, R54L, A55H, D93N, S94N
B12: 369_H05 (antibody, V domains shown)
VH: B1 VH with D30S, S33G, S49A, G50N, S59G, H106A
VL: B1 VL with L30V, V51A, D93S, S94N
B13: 369_F10 (antibody, V domains shown)
VH: B1 VH with S33G, G50N, G55S, T58K, H106A
VL: B1 VL with L30V, S31T, V33L, S94L
B14: 370_A01 (antibody, V domains shown)
VH: B1 VH with D30S, G55S, T58K, H106A
VL: B1 VL with L30S, S31T, V33L, L47V, V51A, D93N, S94L
B15: 369_G12 (antibody, V domains shown)
VH: B1 VH with D30S, S49A, G50N, S59G, H106A
VL: B1 VL with S31T, L47V, V51A, A55H, Y92D, D93N, S94T
B16: 369_B01 (antibody, V domains shown)
VH: B1 VH with D30S, H106A
VL: B1 VL with V33L, D93E, S94N
B17: 370_A03 (antibody, V domains shown)
VH: B1 VH with D30S, G50N, H106A
VL: B1 VL with V33L, V51A
B18: 370_C05 (antibody, V domains shown)
VH: B1 VH with D30S, S49A, G55S, S59G, H106A
VL: B1 VL with L47V, V51A, D93N
B19: 368_B01 (antibody, V domains shown)
VH: B1 VH with D30S, S33G, G55S, T58K, H106A
VL: B1 VL with L30S, V33L, V51A, D93E, S94T
B20: 369_D02 (antibody, V domains shown)
VH: B1 VH with D30S, S31D, G50N, G55S, S59G, H106A
VL: B1 VL with V33L, L47V, S94T
B21: 368_D04 (antibody, V domains shown)
VH: B1 VH with D30S, S33G, T58K, H106A
VL: B1 VL with L30S, S31T, L47V, A55H
B22: 369_C03 (antibody, V domains shown)
VH: B1 VH with D30S, S33G, G50N, T58K, H106A
VL: B1 VL with S31T, V33L, L47V, V51A
B23: 370_D04 (antibody, V domains shown)
VH: B1 VH with S49A, G50N, G55S, T58K, S59G, H106A
VL: B1 VL with S31T, V33L, L47V, V51A, S94N
B24: 368_E04 (antibody, V domains shown)
VH: B1 VH with D30S, S49A, G50N, G55S, S59G, H106A
VL: B1 VL with V51A, A55H, S94N
B25: 369_C02 (antibody, V domains shown)
VH: B1 VH with G50N, T58K, H106A
VL: B1 VL with S31T, V33L, L47V, V51A, D93E, S94L
B26: 368_D11 (antibody, V domains shown)
VH: B1 VH with S31D, S33G, G50N, T58K, H106A
VL: B1 VL with S31T, V33L, L47V, V51A, S94L
B27: 369_E11 (antibody, V domains shown)
VH: B1 VH with D30S, S33G, G50N, H106A
VL: B1 VL with L30I, V33L, V51A, R54L, S94T
B28: 368_G12 (antibody, V domains shown)
VH: B1 VH with D30S, S33G, S49A, G50S, G55S, S59G, H106A
VL: B1 VL with L30S, L47V, D93E, S94T
B29: 369_F11 (antibody, V domains shown)
VH: B1 VH with S33G, G50N, G55S, T58K, H106A
VL: B1 VL with L30I, V33L, V51A, S94L
B30: 368_E07 (antibody, V domains shown)
VH: B1 VH with D30S, S33G, S49A, R98K, H106A
VL: B1 VL with V33L, D93E, S94N
B31: 370_A12 (antibody, V domains shown)
VH: B1 VH with D30S, S33G, S49A, H106A
VL: B1 VL with S31T, V33L, V51A, R54L
B32: 369_F02 (antibody, V domains shown)
VH: B1 VH with D30S, S33G, S49A, G50S, G55S, T58K, H106A
VL: B1 VL with L30V, V33L, L47V, V51A, S94T
B33: 368_F03 (antibody, V domains shown)
VH: B1 VH with S49A, G55S, S59G, R98K, H106A
VL: B1 VL with L30I, V33L, L47V, V51A, A55H
B34: 369_F06 (antibody, V domains shown)
VH: B1 VH with S31D, S49A, T58K, S59G, H106A
VL: B1 VL with L30V, L47V, V51A
B35: 369_D04 (antibody, V domains shown)
VH: B1 VH with S33G, H106A
VL: B1 VL with L47V, V51A, D93N, S94L
B36: 369_E02 (antibody, V domains shown)
VH: B1 VH with S33G, G50N, S59G, H106A
VL: B1 VL with L30V, V51T, A55H, S94N
B37: 368_D05 (antibody, V domains shown)
VH: B1 VH with D30S, H106A
VL: B1 VL with S31T, V33L, L47V, V51A, Y92D
B38: 368_D01 (antibody, V domains shown)
VH: B1 VH with D30S, S33G, N35H, S49A, G50N, H106A
VL: B1 VL with V33L, L47V, V51A, Y92D, D93S, S94T
B39: 369_H09 (antibody, V domains shown)
VH: B1 VH with S31D, H106A
VL: B1 VL with R54L, D93E
B40: 369_A02 (antibody, V domains shown)
VH: B1 VH with D30S, S49A, G55S, S59G
VL: B1 VL with V51A, S94L
B41: 368_E06 (antibody, V domains shown)
VH: B1 VH with D30S, S31D, S33G, N35H, S59G, H106A
VL: B1 VL with V33L, L47V, A50G, V51A
B42: 368_E01 (antibody, V domains shown)
VH: B1 VH with D30S, S49A, G50S, G55S, S59G
VL: B1 VL with V33L, A55H, D93S, S94L
B43: 369_D12 (antibody, V domains shown)
VH: B1 VH with S49A, G55S, H106A
VL: B1 VL with V33L, V51A, R54L, S94T
B44: 368_G01 (antibody, V domains shown)
VH: B1 VH with D30S, S31D, S33G, N35H, S49A, G50S, G55S, H106A
VL: B1 VL with S31T, V33L, L47V, V51A, D93N, S94L
B45: 369_E12 (antibody, V domains shown)
VH: B1 VH with D30S, S33G, N35H, S49A, G50S, G55S, H106A
VL: B1 VL with L30I, V33L, V51A, D93E
B46: 368_H04 (antibody, V domains shown)
VH: B1 VH with D30S, S49A, G55S, T58K, S59G, R98K
VL: B1 VL with L30V, V51A
B47: 368_F11 (antibody, V domains shown)
VH: B1 VH with D30S, S31D, S33G
VL: B1 VL with L30V, L47V, V51A, D93N, S94N
B48: 368_C05 (antibody, V domains shown)
VH: B1 VH with S33G, G55S, H106A
VL: B1 VL with V33L, L47V, V51A, Y92D, D93S, S94N

target: Human Fc (human); assay: ELISA, negative control

In order of falling optical density:
1. B31  0.674 OD
2. B14  0.637 OD
3. B7  0.554 OD
4. B16  0.487 OD
5. B32  0.478 OD
6. B4  0.474 OD
7. B12  0.457 OD
8. B45  0.452 OD
9. B35  0.435 OD
10. B44  0.431 OD
11. B43  0.425 OD
12. B17  0.424 OD
13. B20  0.407 OD
14. B6  0.403 OD
15. B42  0.392 OD
16. B9  0.389 OD
17. B8  0.385 OD
18. B40  0.383 OD
19. B10  0.381 OD
20. B2  0.377 OD
21. B23  0.371 OD
22. B29  0.37 OD
23. B25  0.369 OD
24. B19  0.365 OD
25. B36  0.365 OD
26. B39  0.365 OD
27. B13  0.361 OD
28. B15  0.353 OD
29. B34  0.353 OD
30. B3  0.347 OD
31. B18  0.346 OD
32. B27  0.343 OD
33. B28  0.341 OD
34. B21  0.338 OD
35. B47  0.338 OD
36. B5  0.331 OD
37. B41  0.325 OD
38. B22  0.323 OD
39. B33  0.323 OD
40. B24  0.32 OD
41. B38  0.319 OD
42. B46  0.319 OD
43. B26  0.297 OD
44. B37  0.282 OD
45. B1  0.277 OD
46. B30  0.251 OD
47. B11  0.248 OD
48. B48  0.246 OD
